In publication PMC10470402 (iScience, 2023):

B3: S. pombe SmD1/SmD2 subcomplex, HT-tag removed (complex)
chain 1: not shown
chain 2: MADLVDKPRSELSEIELARLEEYEFSAGPLSVLQQAVKNHDQVLINCRNNKKLLARVKAFDRHSNMVLENVKEMWTEKKRTASGKKGKAINKDRFISKMFLRGDGVVLVVRIPSA
B4: S. pombe HT-ICln (residues 1-160) (domain or fragment)
chain: MITKIDSLPKDLIRKVENGEKLLPNQEIVYFEEKTVPYKIRSDEESFPLGKLITLLVTSQSFILFDEEQNSGWKIPYETITLHAKQSKDKPYVYVQLEGEAIRPLLDHILKFERSSGTLHEAPSTEDENEFTDDFLELTLYVTDVDSCYQALCTCQSLHP
B5: S. pombe SmD3 (1-83)/SmB (1-93) subcomplex, HT-tag removed (complex)
chain 1: MSLCIKLLHETQGHIVTMELENGSTYRGKLIEAEDNMNCQMRDISVTARDGRVSHLDQVYIRGSHIRFLIVPDMLRNAPMFKV
chain 2: MGTTKMVSLLNHSLNVTTKDGRTFVGQLLAFDGFMNLVLSDCQEYRHIKKQNVPSNSVYEEKRMLGLVILRGEFIVSLSVQGPPPMDPSMRGS

Legend:
[1] = biological target: T1, S. pombe Gemin2/HT-SMNp complex (S. pombe, UniProt P0CU08 1-235; Q09808 1-35); assay: pull-down
T1 sequence 1: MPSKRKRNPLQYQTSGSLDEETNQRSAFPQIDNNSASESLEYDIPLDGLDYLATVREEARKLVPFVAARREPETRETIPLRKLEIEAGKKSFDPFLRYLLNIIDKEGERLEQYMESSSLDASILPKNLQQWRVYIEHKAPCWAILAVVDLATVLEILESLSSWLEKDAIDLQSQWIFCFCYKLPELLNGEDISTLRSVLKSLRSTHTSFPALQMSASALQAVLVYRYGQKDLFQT
T1 sequence 2: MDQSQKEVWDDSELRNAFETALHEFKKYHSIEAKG

[2] = biological target: T1, S. pombe Gemin2/HT-SMNp complex; assay: pull-down; remark: listed apart in the source
[3] = biological target: the molecule itself; assay: SEC
[4] = biological target: T2, S. pombe Gemin6/Gemin7/Gemin8 complex, HT-tag removed (S. pombe, UniProt G2TRK8 1-93; G2TRR1 1-91; Q9USY8 1-166); assay: SEC
T2 sequence 1: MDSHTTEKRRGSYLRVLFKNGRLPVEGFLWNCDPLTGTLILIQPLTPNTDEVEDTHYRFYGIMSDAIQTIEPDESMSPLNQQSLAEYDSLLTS
T2 sequence 2: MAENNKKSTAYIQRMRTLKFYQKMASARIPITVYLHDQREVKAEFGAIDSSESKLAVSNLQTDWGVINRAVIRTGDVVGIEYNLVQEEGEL
T2 sequence 3: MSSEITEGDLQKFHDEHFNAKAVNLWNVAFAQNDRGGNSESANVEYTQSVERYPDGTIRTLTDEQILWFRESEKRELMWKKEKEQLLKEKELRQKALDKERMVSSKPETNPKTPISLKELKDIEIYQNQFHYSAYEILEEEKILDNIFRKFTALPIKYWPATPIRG

[5] = biological target: B4; assay: pull-down
[6] = biological target: B4; assay: pull-down; remark: listed apart in the source
[7] = biological target: S. pombe SmD1/HT-SmD2 subcomplex (S. pombe, UniProt O42661 1-117; O14036 1-115); assay: SEC + other: ion-exchange chromatography
Chain of S. pombe SmD1/HT-SmD2 subcomplex (O42661 whole entry, one chain of several): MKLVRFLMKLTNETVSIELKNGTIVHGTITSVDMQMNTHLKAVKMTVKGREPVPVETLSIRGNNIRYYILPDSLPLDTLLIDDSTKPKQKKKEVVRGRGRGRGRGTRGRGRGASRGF

[8] = biological target: B5; assay: SEC
[9] = biological target: B3; assay: SEC

B1: S. pombe SmF/SmE/SmG subcomplex, HT-tag removed (complex)
chain 1: not shown
chain 2: MSGRVQKVMIPPINFIFKLLQQHTPVSIWLFEQTDIRLQGQIRGFDEFMNIVLDDAVQVDAKNNKRELGRILLKGDNITLIQAI
chain 3: MSKAGAPDLKKYLDRQVFVQLNGSRKVYGVLRGYDIFLNIVLEDSIEEKVDGEKVKIGSVAIRGNSVIMIETLDKMT
percent bound [1]: 14.1% | percent bound (D1/D2 and F/E/G added together) [2]: 53.5% | stoichiometry N [3]: 6

B2: S. pombe SMN, full length, HT-tag removed (natural protein)
chain: MDQSQKEVWDDSELRNAFETALHEFKKYHSIEAKGGVSDPDSRLDGEKLISAARTEESISKLEEGEQMINQQTETTLEGDTHIQQFADNKGLSDEKPETRAAETHQEFMEVPPPIRGLTYDETYKKLIMSWYYAGYYTGLAEGLAKSEQRKD
binding result [4]: binds

B3
percent bound [1]: 19.8% | percent bound [5]: 100% | percent bound (D1/D2 and F/E/G added together) [2]: 59% | percent bound (D1/D2 and F/E/G added together) [6]: 95%

B4
binding result [7]: binds | binding result [8]: binds | binding result [9]: binds

B5
percent bound [5]: 88.9%
